Assay [1] concerns the target T1, human galectin-9 CRD1 domain (human, UniProt O00182 15-148, limits assumed).
T1 construct: domain: CRD1; also called CRD1 domain of galectin-9 protein
Nature of the assay: bead based binding to human galectin-9 CRD1 and CRD2 domains.

Assay [2] concerns the target T2, cynomolgus galectin-9 CRD2 domain (cynomolgus monkey, UniProt A0A7N9IHL9 227-355).
T2 construct: domain: CRD2; also called cynomolgus CRD2 domain; CRD2 domain of cynomolgus monkey galectin-9
Nature of the assay: bead based binding.

For assay [3], the target named is T3, human galectin-9 CRD2 domain (human, UniProt O00182 227-355, limits assumed).
T3 construct: domain: CRD2; also called CRD2 domain of galectin-9
T3 sequence (O00182 227-355 limits assumed): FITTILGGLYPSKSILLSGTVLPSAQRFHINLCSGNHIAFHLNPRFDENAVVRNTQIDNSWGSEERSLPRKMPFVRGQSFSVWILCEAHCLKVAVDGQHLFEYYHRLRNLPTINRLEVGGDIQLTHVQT
Put plainly: bead based binding.

Assay [4] has as its target T4, rat galectin-9 CRD2 domain (rat, UniProt P97840 226-354, limits assumed).
T4 construct: domain: CRD2; also called rat CRD2 domain
Put plainly: bead based binding.

The target of assay [5] is T5, mouse galectin-9 CRD2 domain (mouse, UniProt O08573 225-353, limits assumed).
T5 construct: domain: CRD2; also called mouse CRD2 domain
T5 sequence (O08573 225-353 limits assumed): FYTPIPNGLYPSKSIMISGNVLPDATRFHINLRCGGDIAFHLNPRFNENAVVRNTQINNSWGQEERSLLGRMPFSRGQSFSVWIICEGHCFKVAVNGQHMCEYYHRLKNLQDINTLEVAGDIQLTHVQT
Put plainly: bead based binding.

For assay [6], the target named is T3, human galectin-9 CRD2 domain. Nature of the assay: ELISA, antibody titrated over immobilized Galectin-9 CRD2. In general terms: In an ELISA, binding on a coated surface is turned into a signal by an enzyme label.
Assay [7] concerns the target T5, mouse galectin-9 CRD2 domain. Put plainly: SPR, One Step method on a Pioneer SPR. Background: SPR reads the build-up and loss of mass on a sensor chip optically.
The target in assay [8] is T6, human galectin-9 on the cell surface (CRL-2134 cell line; patient tumor-derived cells) (human, UniProt O00182 1-355).
T6 construct: whole, on cells
T6 sequence (O00182 whole entry): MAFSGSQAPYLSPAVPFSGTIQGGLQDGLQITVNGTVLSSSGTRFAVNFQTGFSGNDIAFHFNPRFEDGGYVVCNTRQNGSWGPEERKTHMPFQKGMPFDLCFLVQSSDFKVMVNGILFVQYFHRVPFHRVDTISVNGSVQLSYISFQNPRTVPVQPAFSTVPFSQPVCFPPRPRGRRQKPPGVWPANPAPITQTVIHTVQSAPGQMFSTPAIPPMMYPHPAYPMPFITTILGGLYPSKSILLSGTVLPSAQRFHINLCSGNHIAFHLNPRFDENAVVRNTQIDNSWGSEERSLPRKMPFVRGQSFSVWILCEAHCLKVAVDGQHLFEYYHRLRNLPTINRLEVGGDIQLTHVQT
Put plainly: cell based saturation curve, surface staining of CRL-2134 cells (fraction of positive cells).

T1 sequence (O00182 15-148 limits assumed): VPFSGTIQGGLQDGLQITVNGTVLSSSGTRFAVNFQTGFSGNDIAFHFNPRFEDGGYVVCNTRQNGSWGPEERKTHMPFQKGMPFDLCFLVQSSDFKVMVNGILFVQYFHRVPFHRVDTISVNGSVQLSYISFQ
T4 sequence (P97840 226-354 limits assumed): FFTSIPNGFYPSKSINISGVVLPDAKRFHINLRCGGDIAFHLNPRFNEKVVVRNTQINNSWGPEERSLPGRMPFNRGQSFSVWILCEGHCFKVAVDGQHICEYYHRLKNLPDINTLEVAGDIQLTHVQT

B1: G9.2-17 mIgG1 (mouse IgG1 version of G9.2-17) (antibody, V domains shown)
VH: EVQLVESGGGLVQPGGSLRLSCAASGFTVSSSSIHWVRQAPGKGLEWVAYISSSSGYTYYADSVKGRFTISADTSKNTAYLQMNSLRAEDTAVYYCARYWSYPSWWPYRGMDYWGQGTLVTVSS
VL: DIQMTQSPSSLSASVGDRVTITCRASQSVSSAVAWYQQKPGKAPKLLIYSASSLYSGVPSRFSGSRSGTDFTLTISSLQPEDFATYYCQQSSTDPITFGQGTKVEIKR
notes: Mouse IgG1 backbone; also called mIgG1 G9.2-17; G9.2-17 IgG1 mouse mAb
Broadly, the Kd is the equilibrium constant for the complex coming apart. High values mean a looser complex, low ones a tighter complex. As to B1, the binding result in assay [1] is recorded as “no binding”. In addition, the Kd in assay [2] worked out at 300 pM; in assay [3], 180 pM; in assay [4], 350 pM; in assay [5], 300 pM; in assay [6], 450 pM; in assay [7] it was 3050 pM. Binding in assay [8] was put at a Kd of 2900 pM.

B2: anti-Galectin-9 antibody G9.2-17 (IgG4) (antibody, V domains shown)
VH: EVQLVESGGGLVQPGGSLRLSCAASGFTVSSSSIHWVRQAPGKGLEWVAYISSSSGYTYYADSVKGRFTISADTSKNTAYLQMNSLRAEDTAVYYCARYWSYPSWWPYRGMDYWGQGTLVTVSS
VL: DIQMTQSPSSLSASVGDRVTITCRASQSVSSAVAWYQQKPGKAPKLLIYSASSLYSGVPSRFSGSRSGTDFTLTISSLQPEDFATYYCQQSSTDPITFGQGTKVEIKR
notes: also called G9.2-17 (Ig4); G9.2-17 hIgG4 Fab Arm Exchange mut
As for B2, the binding result in assay [1] is “no binding”. Further, the Kd in assay [3] was found to be 150 pM; in assay [5], 300 pM; in assay [6], 420 pM; in assay [7], 1800 pM; in assay [8], 410 pM.

These data come from US20220185896A1 (NEW YORK UNIVERSITY, published 2022).
